{
  "source": "paper PMC10845952",
  "about": "“Mass spectrometry and split luciferase complementation assays reveal the MecA protein interactome of Streptococcus mutans” (Microbiology Spectrum, 2024)",
  "data": [
    {"target": "T1, MecA fused to the RenG N-terminal domain (1-155) (S. mutans, UniProt Q8DW33 1-240)", "T1 construct": "adaptor protein MecA; S. mutans UA159; source: S. mutans, expressed in live cells; not shown: RenG luciferase N-terminal domain (1-155), C-terminal, kept", "T1 sequence": "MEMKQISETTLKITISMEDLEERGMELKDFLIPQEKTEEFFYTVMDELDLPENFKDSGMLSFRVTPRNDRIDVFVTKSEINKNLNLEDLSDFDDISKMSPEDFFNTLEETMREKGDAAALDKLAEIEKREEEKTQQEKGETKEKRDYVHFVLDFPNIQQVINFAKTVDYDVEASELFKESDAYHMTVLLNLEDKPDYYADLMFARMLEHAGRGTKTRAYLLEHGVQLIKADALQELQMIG", "experiment": "split reporter (BiFC, NanoBiT)", "conditions": "partners not purified", "units": {"relative binding affinity (%)": "%"}, "values": [
      {"binder": "IlvD fused to the RenG C-terminal domain (156-314) (natural protein, Dihydroxy-acid dehydratase, IlvD; S. mutans UA159; not shown: RenG luciferase C-terminal domain (156-314), C-terminal, kept) not shown", "relative binding affinity (%)": "13.1 ± 0.61"},
      {"binder": "TopA fused to the RenG C-terminal domain (156-314) (natural protein, S. mutans, UniProt Q8DUD3 1-705, looked up) MTSKTTTTVKKTSKKRATPKKNLVIVESPAKAKTIEKYLGRSYKVVASVGHIRDLKKSSMSIDFDNNYEPQYINIRGKGPLINSLKKEAKNAKQIFLASDPDREGEAISWHLAHILDLDLKGKNRVVFNEITKDAVKNAFVEPRQIDMDLVDAQQARRVLDRIVGYSISPILWKKVKKGLSAGRVQSVALKLIIDRENEIKAFKPEEYWSIDGFFKKGNKKFQANFYGLDNKKTKLKSNDDVKKVLTRIKNDDFLVDKVEKKERKRNAPLPYTTSSLQQDAANKINFRTRKTMMVAQQLYEGIRLGSNGQQGLITYMRTDSTRISPVAQNDAANYITEHFGAEYSKHGNHVRNASGAQDAHEAIRPSNVNHTPESIAKYLDKDQLKLYTLIWNRFVASQMTAAVFDTVKVNLTQNGVLFIANGSQIKFKGYMAVYNDSDKTKVLPEMIKGETVKKISANPEQHFTQPPARYSEASLIKTLEENGVGRPSTYAPTLETIQKRYYVRLVSKRFEPTELGEIVNSLIIEFFPDIVDVKFTAEMESKLDEVEIGKEEWQKVIDQFYKPFEKEVIKAEEQMEKIQIKDEPAGFDCDVCGHPMVIKLGRYGKFYACSNFPDCHNTKAITKEIGVICPICQKGQVIERKTKRNRIFYGCDRYPDCDFTSWNKPIGRDCPKSGDFLVEKKIRGGGKQVVCSNEECDYKEKAVK", "relative binding affinity (%)": "8.64 ± 0.36"},
      {"binder": "UvrA fused to the RenG C-terminal domain (156-314) (natural protein, S. mutans, UniProt P72481 1-943, looked up, Excinuclease ABC subunit, UvrA; S. mutans UA159; not shown: RenG luciferase C-terminal domain (156-314), C-terminal, kept) MQDKLIIRGARAHNLKNIDVEIPRDKLIVMTGLSGSGKSSLAFDTIYAEGQRRYVESLSAYARQFLGNMDKPDVDSIDGLSPAISIDQKTTSKNPRSTVGTVTEINDYLRLLYARVGIPYCKNGHGAITASSVEQIVDQVLILPERTRMQILAPVVRRKKGQHKAVFDRIQKDGYVRVRIDGDIMDVAEVPELSKNKMHNIEVVVDRLVQKDGIRGRLFDSIEAALHLGDGYVIIDTMDDHELIFSEHYSCPVCGFTVPELEPRLFSFNAPFGSCPTCDGLGIKLEVDLDLVIPDENKTLREGTLAPWNPISSNYYPQLLEQAMNAFGVDMDKPWKDLSDEDKKLVLHGSGDTAFHFHYQNDFGGVRDIDIPFEGIISNISRRYHETNSDFTRNVMRSYMNELPCATCHGYRLNDQALSVRVGGKEGLNIGQVSELSIADHLSLLTHLELSENEKTIATPIVKEIKDRLTFLNNVGLNYLTLSRSAGTLSGGESQRIRLATQIGSNLSGVLYILDEPSIGLHQRDNDRLISSLKKMRDLGNTLIVVEHDEDTMMAADWLVDVGPGAGALGGEIVASGTPRQVAKNKKSITGQYLSGKKKIPVPLDRRKGSGRFIEIKGAAENNLQNINVKFPLGKFIAVTGVSGSGKSTLVNSILKKVIAQKLNRNSEKPGKYKSISGIEHIDRLIDIDQSPIGRTPRSNPATYTGVFDDIRDLFAQTNEAKIRGYKKGRFSFNVKGGRCEACSGDGIIKIEMHFLPDVYVPCEVCHGTRYNSETLEVHYKDKNIAEILNMTVNDAAEFFAPIPKIARKIRTIKDVGLGYVTLGQPATTLSGGEAQRMKLASELHKRSTGKSFYILDEPTTGLHTDDIARLLKVLERFVDDGNTVLVIEHNLDVIKTADHIIDLGPEGGVGGGQVIATGTPEQVAEMTESYTGQYLKGRLNEK", "relative binding affinity (%)": "7.86 ± 0.3"},
      {"binder": "AlaS fused to the RenG C-terminal domain (156-314) (natural protein, S. mutans, UniProt Q8CWY0 1-872, looked up, Alanine-tRNA ligase, AlaS; S. mutans UA159; not shown: RenG luciferase C-terminal domain (156-314), C-terminal, kept) MKQLTSAQVRQMWLDFWKSKDHAIEPSANLVPVNDPTLLWINSGVATLKKYFDGSVIPENPRITNAQKAIRTNDIENVGKTARHHTMFEMLGNFSVGDYFRDDAIKWGFELLTSPEWFDLPKDKLYMTYYPDDKDSYNRWIECGVDPSHLIPIEDNFWEIGAGPSGPDTEIFFDRGEDFDPDHIGVRLLAEDIENDRYIEIWNIVLSQFNADPAVPRSEYKELPHKNIDTGAGLERLVAVMQGAKTNFETDLFMPIIREIEKLSGKTYDQDGDNMSFKVIADHIRSLSFAIGDGALPGNEGRGYVLRRLLRRAVMHGRRLGINEPFLYKLVPTVGKIMESYYPEVLEKQDFIEKIVKREEETFARTIDAGSNMLDQLLADLKAADKDTLEGKDIFRLYDTYGFPVELTEELAEDAGFKIDHQGFQAAMKEQQERARANVVKGGSMGMQNETLSNITEKSTFNYEKEALDSSLSVIIADNKRIEAVSEGQVLLVFSETPFYAEMGGQVADHGLIKNDKGDTVARVTDVQKAPNGQALHTVDVLGSLSVGTTYHLEIDHERRNRVMKNHTATHLLHAALHNVIGNHATQAGSLNEVEFLRFDFTHFEAVTPEELRQIEEEVNQQIWKAIPVTTIETDLDTAKEMGAMALFGEKYGKNVRVVSIGDYSVELCGGTHLKNTSEIGIFKIVKEEGIGSGTRRILAVTSKEAFEAYRQEEDILKEIATTLKAPQMNQVANKVASLQDQLHKLQKENAELKEKAAAVAAGDIFKDVKEVNGLRYIASQVEVADAGALRTFADKWKQKDYSDVLVLVASIGKKVNVLVASKSKDIHAGNLIKALAPIVSGRGGGKPDMAMAGGSDASAIKDLIAAVAENL", "relative binding affinity (%)": "5.5 ± 0.29"},
      {"binder": "ClpC with the RenG C-terminal domain (156-314) fused to its N-terminus (natural protein, S. mutans, UniProt Q8DS14 1-813, looked up, also called N-ClpC) MTDYSLKMQEVFRLAQFEAARFESSYLESWHVLLAMVEIDSSVAGLSFAEFEADVRFEDYQAAAILAIGKKPKSSSNDIMLLEQSHALKRTLAEAAAISQVTHAKEVGTEHVLFAMLLNPNLLATRILELVGFHAKDDGESIRLLDLRKVIERYAGFSKEDIKAIFEMRKPKKVKNSSSFSDLMKPPSVTGELADFTRDLTELARQGRLEPVIGREQEISRMVQILSRKTKNNPVLVGDAGVGKTALAYGLAQRIVDSAVPFELADMKVLELDMMSVVAGTRFRGDFEERMNQIIADIEADGHIVLFIDELHTIMGSGSGIDSTLDAANILKPALARGSLRTIGATTQEEYQKHIEKDAALSRRFAKVTIEEPSEEEAYQILLGLKKSYETYHHVIISDAAVMAAVKGAHRYLSGKNLPDSAIDLLDEASATVQGLVKKKAPAYLTDLDHALITNDYQLAKRLLKKEKKPLLKKRAEVKEEDILATLSKLSGIPVKKLTQADSKKYLNLERELHKRVIGQDDAVSSISRAIRRNQSGIRVGKRPIGSFMFLGPTGVGKTELAKALAEVLFDDESALIRFDMSEYMEKFAASRLNGAPPGYVGYEEGGELTEKVRNKPYSVLLFDEVEKAHPDIFNILLQVLDDGVLTDSRGRKVDFSNTIIIMTSNLGATALRDDKTVGFGAKSFSQDYKAMESRILEELKKVYRPEFINRIDEKVVFHNLGQEDIRHIVKIMVAPLIAHLADQGITLKFQPSALKHLALAGYDAEMGARPLRRTLQTEVEDKLAELILSGKLASGQTLKIGIQKEKLKFDIV", "relative binding affinity (%)": "55.2 ± 4.16"},
      {"binder": "GltB fused to the RenG C-terminal domain (156-314) (natural protein, S. mutans, UniProt Q8CWY8 1-478, looked up) MADPFGFLKYERKDNPYRPVNERIKDFEELQTTLSVEERQKQAARCMNCGIPFCHEGTFYGGGRAVSGCPNDNLIPEWNDLIYKGDFRRAFERLTRTNPLPEMTGRVCPAPCEKACTEGLNGSGVTIHDNERFIIDNAFEEGWVADSGRPIERTGFKVAVVGSGPAGLSAAWRLNQLGHSVTVFERSDRFGGLLMYGIPNMKLDKKIVQRRIDTMASIGINFVANTEIGRDITAEELLEKFDRVILATGASVPRDLDIPGRDLKGIRFAVDFLTETTKNLLDSDTHELPPLLEGKHVLVIGGGDTGNDCIGTAVRLGAASVRQLEITPQLPEKRLPTNPWPQYPMINRTGYGQEEADFVQQTDLTDYITSTVEFLGENGQVTAVKTIKVGPGFKAIEGTEEVIKADLVLLAMGFTGAEKALFDQFRVECVYDDYSTRNEKVFVAGDARRGPSLVIWGIREGRKTAEKIDQNLRMMVTE", "relative binding affinity (%)": "7.45 ± 0.28"},
      {"binder": "PheT fused to the RenG C-terminal domain (156-314) (natural protein, S. mutans, UniProt Q8CWX2 1-801, looked up, Phenylalanine-tRNA ligase subunit beta, PheT; S. mutans UA159; not shown: RenG luciferase C-terminal domain (156-314), C-terminal, kept) MLVSYKWLKELVDIDVPSHELAEKMSTTGIEVEGVDVPAEGLSKLVVGHVLSCEDVPETHLHLCQVDTGEEESRQIVCGAPNITAGIKVIVALPGARIADNYKIKKGKIRGMESLGMICSLQELGLPDSIIPKEYSDGIQILPEDAVPGESIFPYLDLDDEIIELSITPNRADALSMRGVAHEVAAIYDKSVHFEDKVLTESDKKAADLIKVAIASDKVLTYKARVVENVTIKPSPQWLQNLLMNAGIRPINNVVDVTNYVLLYFGQPMHAFDLDKFEGKDILARQAKAGEKLVTLDGEARDLIEEDLVITVADKPVALAGVMGGAATEIDASSKNVVLEAAVFDGKSVRKTSSRLNLRSESSSRFEKGVNYADVVKALDFAAAMLTELADGTVLAGQVSAGAVPTDDIQVSTSLDYVNVRLGTDLVFSDIESVFARLGFGLSGNDEKFTVSVPRRRWDISIQADLVEEIARIYGYDKLPTTLPEAAGTVGELTKTQKLRRKIRNLAEGSGLSEIISYALTTPEKAVAFTPNPTKITELMWPMTVDRSALRQNIVSGMLDTIAYNVARKSNNLALYEIGKVFEQTADPKKDLPKEIDTFAFALTGLVTEKDFQTAATPVDFFYAKGVLEAILAKLEITVQFVATKEMANMHPGRTALIERDGQVIGYLGQVHPQTAKLYDIPETYVAEVNLNALEAALKSDLVFEDITKFPAVSRDIALLLSEKVSHQDILDAIAASGVKRLIKVKLFDVYAGEKLGVGKKSMAYSLTFQNPNDNLTDEEVAKYMEKITSALTEKVGAEVR", "relative binding affinity (%)": "17.9 ± 0.77"},
      {"binder": "MnmG fused to the RenG C-terminal domain (156-314) (natural protein, S. mutans, UniProt Q8DRS6 1-631, looked up, not shown: RenG luciferase C-terminal domain (156-314), C-terminal, kept) MTHEFTENYDVIVIGAGHAGVEASLATSRMGCKTLLATINLEMLAFMPCNPSIGGSAKGIVVREIDALGGEMGKNIDKSYIQMRMLNTGKGPAVRALRAQADKALYARNMKHTVEQQENLTLRQSMIDEILVEDGKVIGVRTATNQKYSAQAVIVTTGTALRGEIILGELKYSSGPNNSLASVTLADNLRDLGLEIGRFKTGTPPRVKANSIHYDETEIQPGDKKANHFSFMSKDEDYLKDQIPCWLTYTNQSSHDIINKNLYRAPMFSGIVKGVGPRYCPSIEDKIVRFADKDRHQLFLEPEGRETEEVYIQGLSTSLPEDVQKDVVHSIKGLENAEMMRTGYAIEYDIVLPHQLRATLETKKISGLFTAGQTNGTSGYEEAAGQGIVAGINAALKIQGKPELILKRSDAYIGVMIDDLVTKGTLEPYRLLTSRAEYRLILRHDNADLRLTEIGHQVGLVNEERYMRFQIRKNQFDNELTRLSSIKLKPVAEINKRIEELGFKPLTDALTAKEFMRRPEINYAIATSFVGPAAESLDEKVIELLETEIKYEGYINKALDQVAKMKRMEEKRIPKNIDWDAIDSIATEARQKFKKINPETIGQASRISGVNPADISILMVYLEGKNRSRTR", "relative binding affinity (%)": "8 ± 0.33"}
    ]}
  ]
}
